Data taken from patent EP1746107B1.
Where two headings read alike, the source gives them in different places. Each block holds one substance with its values, some of them ahead of it.

Columns and labels:
[1] = molecular target: human C1q (Quidel, San Diego, CA) (human) (UniProt P02745); test: cell-based or functional assay
[2] = molecular target: human C1q (Quidel, San Diego, CA) (human) (UniProt P02745); test: C1q binding ELISA (antibody coated, 2 µg/ml C1q added)
[3] = molecular target: CD20 antigen on WIL2-S cells (UniProt P11836); test: flow cytometry on WIL2-S cells expressing CD20
CD20 antigen on WIL2-S cells, sequence (P11836 whole entry): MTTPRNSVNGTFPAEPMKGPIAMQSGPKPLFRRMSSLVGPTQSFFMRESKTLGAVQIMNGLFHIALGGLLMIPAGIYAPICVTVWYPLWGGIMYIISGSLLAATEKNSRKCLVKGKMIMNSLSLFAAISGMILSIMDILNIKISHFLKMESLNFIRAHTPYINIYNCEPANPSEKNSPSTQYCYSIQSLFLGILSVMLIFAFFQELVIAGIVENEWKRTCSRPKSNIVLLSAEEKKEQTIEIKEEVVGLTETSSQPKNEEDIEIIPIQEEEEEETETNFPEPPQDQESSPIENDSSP

[4] = molecular target: human C1q (Quidel, San Diego, CA) (human) (UniProt P02745); test: C1q binding ELISA (antibody coated, 2 µg/ml C1q added); remark: listed apart in the source
[5] = molecular target: human C1q (Quidel, San Diego, CA) (human) (UniProt P02745); test: C1q binding ELISA (antibody coated up to 100 µg/ml, 2 µg/ml C1q added)
[6] = molecular target: FcγRI α subunit-GST fusion (UniProt P12314); test: ELISA on coated FcγRI α subunit-GST, monomeric IgG at 10 µg/ml
FcγRI α subunit-GST fusion, sequence (P12314 16-292): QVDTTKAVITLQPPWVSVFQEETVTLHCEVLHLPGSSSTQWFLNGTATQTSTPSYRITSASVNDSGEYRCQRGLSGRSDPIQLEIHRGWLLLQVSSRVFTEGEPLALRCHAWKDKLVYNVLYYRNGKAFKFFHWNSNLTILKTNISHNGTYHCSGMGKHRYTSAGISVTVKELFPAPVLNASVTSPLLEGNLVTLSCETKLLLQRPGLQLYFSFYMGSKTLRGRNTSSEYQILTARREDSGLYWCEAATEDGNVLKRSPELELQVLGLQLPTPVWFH

[7] = molecular target: FcγRIIIa α subunit ECD-6His-GST fusion protein (UniProt P08637); test: ELISA on coated receptor ECD-6His-GST, E27:chimeric IgE:VEGF immune complex
FcγRIIIa α subunit ECD-6His-GST fusion protein, sequence (P08637 17-208): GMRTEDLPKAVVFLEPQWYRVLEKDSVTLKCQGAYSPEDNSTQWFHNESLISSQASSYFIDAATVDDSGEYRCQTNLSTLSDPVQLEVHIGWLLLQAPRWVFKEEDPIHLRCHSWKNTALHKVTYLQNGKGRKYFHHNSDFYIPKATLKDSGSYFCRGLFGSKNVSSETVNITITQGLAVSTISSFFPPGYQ

[8] = molecular target: FcγRIIa α subunit ECD-6His-GST fusion protein (UniProt P12318); test: as above
FcγRIIa α subunit ECD-6His-GST fusion protein, sequence (P12318 34-217): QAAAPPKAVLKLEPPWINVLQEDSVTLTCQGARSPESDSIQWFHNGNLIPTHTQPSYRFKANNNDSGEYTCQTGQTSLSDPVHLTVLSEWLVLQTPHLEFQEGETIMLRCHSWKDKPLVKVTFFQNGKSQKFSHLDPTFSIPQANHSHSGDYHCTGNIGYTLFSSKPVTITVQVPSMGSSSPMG

[9] = molecular target: FcγRIIb α subunit ECD-6His-GST fusion protein (UniProt P31994); test: as above
FcγRIIb α subunit ECD-6His-GST fusion protein, sequence (P31994 43-217): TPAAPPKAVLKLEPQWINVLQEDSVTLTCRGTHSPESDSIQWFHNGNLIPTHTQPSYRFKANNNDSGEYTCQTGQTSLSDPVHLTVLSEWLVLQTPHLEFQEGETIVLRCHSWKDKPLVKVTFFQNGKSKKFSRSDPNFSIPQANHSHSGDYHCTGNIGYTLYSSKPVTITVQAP

human C1q (Quidel, San Diego, CA) (human), sequence (P02745 23-245 limits assumed, chain 1 of 3): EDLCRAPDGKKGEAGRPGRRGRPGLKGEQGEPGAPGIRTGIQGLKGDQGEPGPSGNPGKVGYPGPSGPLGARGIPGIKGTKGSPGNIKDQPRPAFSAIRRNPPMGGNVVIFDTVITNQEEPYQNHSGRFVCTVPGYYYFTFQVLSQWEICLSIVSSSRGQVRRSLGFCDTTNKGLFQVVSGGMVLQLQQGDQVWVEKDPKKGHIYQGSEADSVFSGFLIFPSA
human C1q (Quidel, San Diego, CA) (human), sequence (P02746 28-253 limits assumed, chain 2 of 3, further chain): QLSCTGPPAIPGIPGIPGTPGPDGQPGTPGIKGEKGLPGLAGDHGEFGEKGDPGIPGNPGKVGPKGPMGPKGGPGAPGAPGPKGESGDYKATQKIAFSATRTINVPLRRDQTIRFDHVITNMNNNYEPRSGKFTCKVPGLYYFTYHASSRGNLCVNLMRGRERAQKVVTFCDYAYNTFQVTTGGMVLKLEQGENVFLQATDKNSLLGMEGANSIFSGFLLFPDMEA
human C1q (Quidel, San Diego, CA) (human), sequence (P02747 29-245 limits assumed, chain 3 of 3, further chain): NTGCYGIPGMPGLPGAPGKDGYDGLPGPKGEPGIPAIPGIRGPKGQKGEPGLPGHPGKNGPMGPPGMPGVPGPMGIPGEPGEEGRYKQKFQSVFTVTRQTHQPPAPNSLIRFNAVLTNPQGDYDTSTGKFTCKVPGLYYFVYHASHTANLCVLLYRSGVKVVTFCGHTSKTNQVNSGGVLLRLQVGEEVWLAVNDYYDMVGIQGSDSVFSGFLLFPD

Substance: C2B8 double mutant K326A-E333A (antibody)
CDC compared to wild type C2B8 [1]: 2 fold | fold better at binding human C1q than wild type C2B8 [2]: 3 fold

Substance: C2B8 mutant E318A (antibody)
CDC (% of wild type) [1]: 108 | decrease in binding to C1q compared to wild type C2B8 [2]: 30% | CD20 binding (EC50), percentage of the wild type (% of wild type) [3]: 89

Substance: C2B8 mutant E333G (antibody)
EC50 [2]: 1.14 µg/mL

Substance: C2B8 mutant E333S (antibody)
EC50 [2]: 0.81 µg/mL | fold increase in binding to C1q compared to wild type [2]: 2 fold

Substance: C2B8 mutant K326E (antibody)
EC50 [2]: 1.08 µg/mL | fold increase in binding to C1q compared to wild type [4]: 2 fold

Substance: C2B8 mutant K326G (antibody)
EC50 [2]: 0.95 µg/mL

Substance: C2B8 mutant K326V (antibody)
EC50 [2]: 1.3 µg/mL

Substance: C2B8 mutant K326W (antibody)
EC50 [2]: 0.47 µg/mL | fold increase in binding to C1q compared to wild type [2]: 5 fold | fold increase in binding to C1q compared to wild type [4]: 2 fold

Substance: C2B8 mutant K334A (antibody)
EC50 [2]: 1.07 µg/mL

Substance: C2B8 mutant P331A (antibody)
fold lower than wild type C2B8 in binding to C1q [5]: 60 fold | CD20 binding (EC50), percentage of the wild type (% of wild type) [3]: 103

Substance: C2B8 mutant with A327 of the human IgG1 constant region changed to glycine (antibody)
increase in C1q binding [2]: 50%

Substance: E27 anti-IgE antibody mutant E318A
binding, percentage of the wild type (% of wild type) [6]: 93 | binding, percentage of the wild type (% of wild type) [7]: 104 | binding, percentage of the wild type (% of wild type) [8]: 113 | binding, percentage of the wild type (% of wild type) [9]: 106

Substance: E27 anti-IgE antibody mutant P331A
binding, percentage of the wild type (% of wild type) [6]: 74 | binding, percentage of the wild type (% of wild type) [7]: 73 | binding, percentage of the wild type (% of wild type) [8]: 86 | binding, percentage of the wild type (% of wild type) [9]: 58

The remaining lines, values ahead:

CDC compared to wild type C2B8 [1]: 2 fold | fold better at binding human C1q than wild type C2B8 [2]: 3 fold
Substance: C2B8 double mutant K326M-E333S (antibody)

CDC compared to wild type C2B8 [1]: 3 fold
Substance: C2B8 double mutant K326W-E333S (antibody)

EC50 [2]: 0.98 µg/mL | increase in binding to C1q [2]: 30%
Substance: C2B8 mutant E333A (antibody)

EC50 [2]: 1.22 µg/mL
Substance: C2B8 mutant E333D (antibody)

EC50 [2]: 1.52 µg/mL
Substance: C2B8 mutant E333Q (antibody)

EC50 [2]: 1.18 µg/mL
Substance: C2B8 mutant E333V (antibody)

CDC (% of wild type) [1]: 108 | CD20 binding (EC50), percentage of the wild type (% of wild type) [3]: 102
Substance: C2B8 mutant K320A (antibody)

EC50 [2]: 1.03 µg/mL | increase in binding to C1q [2]: 30%
Substance: C2B8 mutant K326A (antibody)

EC50 [2]: 0.76 µg/mL | fold increase in binding to C1q compared to wild type [4]: 2 fold
Substance: C2B8 mutant K326D (antibody)

EC50 [2]: 0.67 µg/mL | fold increase in binding to C1q compared to wild type [4]: 2 fold
Substance: C2B8 mutant K326M (antibody)

CD20 binding (EC50), percentage of the wild type (% of wild type) [3]: 112
Substance: C2B8 mutant P329A (antibody)

binding, percentage of the wild type (% of wild type) [6]: 102 | binding, percentage of the wild type (% of wild type) [7]: 72 | binding, percentage of the wild type (% of wild type) [9]: 83
Substance: E27 anti-IgE antibody mutant K320A

binding, percentage of the wild type (% of wild type) [8]: 109 | binding, percentage of the wild type (% of wild type) [9]: 101
Substance: E27 anti-IgE antibody mutant K322A

binding, percentage of the wild type (% of wild type) [6]: 104 | binding, percentage of the wild type (% of wild type) [7]: 85
Substance: E27 anti-IgE antibody mutant P329A
